From patent US20260265379A1 come the findings set out here.

First the molecules themselves.
B1: bsAb035 (bispecific antibody, not shown: small tags and cut ends)
heavy (part 1 of 2): QVQLVQSGAEVKKPGASVKLSCKASGYIFTRYYMYWVKQRPGQGLEWIGEINPNNGGTKFNEKFKNRATLTVDKSISTAYMELSRLRSDDTAVYYCSREDDYDGTPFAMDYWGQGTLVTVSS
heavy (part 2 of 2): GGGGSGGGGSGGGGSGGGGSEVQLVESGGGLVQPGGSLRLSCAASGFTFSRYWMSWVRQAPGKGLEWVANIKQDGSEKYYVDSVKGRFTISRDNAKNSLYLQMNSLRAEDTAVYYCAREGGWFGELAFDYWGQGTLVTVSSGGGGSGGGGSGGGGSGGGGSEIVLTQSPGTLSLSPGERATLSCRASQRVSSSYLAWYQQKPGQAPRLLIYDASSRATGIPDRFSGSGSGTDFTLTISRLEPEDFAVYYCQQYGSLPWTFGQGTKVEIK
heavy: B1 heavy (part 1 of 2)
light: not shown
B2: bsAb040 (bispecific antibody, not shown: small tags and cut ends)
heavy (part 1 of 2): B1 heavy (part 1 of 2)
heavy (part 2 of 2): GGGGSGGGGSGGGGSGGGGSEIVLTQSPGTLSLSPGERATLSCRASQRVSSSYLAWYQQKPGQAPRLLIYDASSRATGIPDRFSGSGSGTDFTLTISRLEPEDFAVYYCQQYGSLPWTFGQGTKVEIKGGGGSGGGGSGGGGSGGGGSEVQLVESGGGLVQPGGSLRLSCAASGFTFSRYWMSWVRQAPGKGLEWVANIKQDGSEKYYVDSVKGRFTISRDNAKNSLYLQMNSLRAEDTAVYYCAREGGWFGELAFDYWGQGTLVTVSS
heavy: B1 heavy (part 1 of 2)
light: not shown
B3: bsAb050 (bispecific antibody, not shown: small tags and cut ends)
heavy 1: EVQLVESGGGLVQPGGSLRLSCAASGFTFSRYWMSWVRQAPGKGLEWVANIKQDGSEKYYVDSVKGRFTISRDNAKNSLYLQMNSLRAEDTAVYYCAREGGWFGELAFDYWGQGTLVTVSSGGGGSGGGGSGGGGSGGGGSEIVLTQSPGTLSLSPGERATLSCRASQRVSSSYLAWYQQKPGQAPRLLIYDASSRATGIPDRFSGSGSGTDFTLTISRLEPEDFAVYYCQQYGSLPWTFGQGTKVEIKGGGGSGGGGSGGGGSGGGGSQVQLVQSGAEVKKPGASVKLSCKASGYIFTRYYMYWVKQRPGQGLEWIGEINPNNGGTKFNEKFKNRATLTVDKSISTAYMELSRLRSDDTAVYYCSREDDYDGTPFAMDYWGQGTLVTVSS
heavy 2: B1 heavy (part 1 of 2)
light: not shown
B4: bsAb048 (bispecific antibody, not shown: small tags and cut ends)
heavy 1: EIVLTQSPGTLSLSPGERATLSCRASQRVSSSYLAWYQQKPGQAPRLLIYDASSRATGIPDRFSGSGSGTDFTLTISRLEPEDFAVYYCQQYGSLPWTFGQGTKVEIKGGGGSGGGGSGGGGSGGGGSEVQLVESGGGLVQPGGSLRLSCAASGFTFSRYWMSWVRQAPGKGLEWVANIKQDGSEKYYVDSVKGRFTISRDNAKNSLYLQMNSLRAEDTAVYYCAREGGWFGELAFDYWGQGTLVTVSSGGGGSGGGGSGGGGSGGGGSQVQLVQSGAEVKKPGASVKLSCKASGYIFTRYYMYWVKQRPGQGLEWIGEINPNNGGTKFNEKFKNRATLTVDKSISTAYMELSRLRSDDTAVYYCSREDDYDGTPFAMDYWGQGTLVTVSS
heavy 2: B1 heavy (part 1 of 2)
light: not shown
B5: bsAb011 (bispecific antibody)
heavy: QVQLVQSGAEVKKPGASVKLSCKASGYIFTRYYMYWVKQRPGQGLEWIGEINPNNGGTKFNEKFKNRATLTVDKSISTAYMELSRLRSDDTAVYYCSREDDYDGTPFAMDYWGQGTLVTVSSASTKGPSVFPLAPSSKSTSGGTAALGCLVKDYFPEPVTVSWNSGALTSGVHTFPAVLQSSGLYSLSSVVTVPSSSLGTQTYICNVNHKPSNTKVDKRVEPKSCDKTHTCPPCPAPEFEGGPSVFLFPPKPKDTLMISRTPEVTCVVVDVSHEDPEVKFNWYVDGVEVHNAKTKPREEQYNSTYRVVSVLTVLHQDWLNGKEYKCKVSNKALPASIEKTISKAKGQPREPQVYTLPPSREEMTKNQVSLTCLVKGFYPSDIAVEWESNGQPENNYKTTPPVLDSDGSFFLYSKLTVDKSRWQQGNVFSCSVMHEALHNHYTQKSLSLSPG
light: not shown
B6: bsAb003 (bispecific antibody, human IgG1, kappa)
heavy: QVQLVQSGAEVKKPGASVKLSCKASGYIFTRYYMYWVKQRPGQGLEWIGEINPNNGGTKFNEKFKNRATLTVDKSISTAYMELSRLRSDDTAVYYCSREDDYDGTPFAMDYWGQGTLVTVSSASTKGPSVFPLAPSSKSTSGGTAALGCLVKDYFPEPVTVSWNSGALTSGVHTFPAVLQSSGLYSLSSVVTVPSSSLGTQTYICNVNHKPSNTKVDKRVEPKSCDKTHTCPPCPAPEFEGGPSVFLFPPKPKDTLMISRTPEVTCVVVDVSHEDPEVKFNWYVDGVEVHNAKTKPREEQYNSTYRVVSVLTVLHQDWLNGKEYKCKVSNKALPASIEKTISKAKGQPREPQVYTLPPSREEMTKNQVSLTCLVKGFYPSDIAVEWESNGQPENNYKTTPPVLDSDGSFFLYSKLTVDKSRWQQGNVFSCSVMHEALHNHYTQKSLSLSPGGGGGSGGGGSGGGGSGGGGSEVQLVESGGGLVQPGGSLRLSCAASGFTFSRYWMSWVRQAPGKGLEWVANIKQDGSEKYYVDSVKGRFTISRDNAKNSLYLQMNSLRAEDTAVYYCAREGGWFGELAFDYWGQGTLVTVSSGGGGSGGGGSGGGGSGGGGSEIVLTQSPGTLSLSPGERATLSCRASQRVSSSYLAWYQQKPGQAPRLLIYDASSRATGIPDRFSGSGSGTDFTLTISRLEPEDFAVYYCQQYGSLPWTFGQGTKVEIK
light: not shown
B7: bsAb001 (bispecific antibody, human IgG1, kappa)
heavy: QVQLVQSGAEVKKPGASVKLSCKASGYIFTRYYMYWVKQRPGQGLEWIGEINPNNGGTKFNEKFKNRATLTVDKSISTAYMELSRLRSDDTAVYYCSREDDYDGTPFAMDYWGQGTLVTVSSASTKGPSVFPLAPSSKSTSGGTAALGCLVKDYFPEPVTVSWNSGALTSGVHTFPAVLQSSGLYSLSSVVTVPSSSLGTQTYICNVNHKPSNTKVDKRVEPKSCDKTHTCPPCPAPEFEGGPSVFLFPPKPKDTLMISRTPEVTCVVVDVSHEDPEVKFNWYVDGVEVHNAKTKPREEQYNSTYRVVSVLTVLHQDWLNGKEYKCKVSNKALPASIEKTISKAKGQPREPQVYTLPPSREEMTKNQVSLTCLVKGFYPSDIAVEWESNGQPENNYKTTPPVLDSDGSFFLYSKLTVDKSRWQQGNVFSCSVMHEALHNHYTQKSLSLSPGGGGGSGGGGSGGGGSGGGGSQVQLVQSGVEVKKPGASVKVSCKASGYTFTNYYMYWVRQAPGQGLEWMGGINPSNGGTNFNEKFKNRVTLTTDSSTTTAYMELKSLQFDDTAVYYCARRDYRFDMGFDYWGQGTTVTVSSGGGGSGGGGSGGGGSGGGGSEIVLTQSPATLSLSPGERATLSCRASKGVSTSGYSYLHWYQQKPGQAPRLLIYLASYLESGVPARFSGSGSGTDFTLTISSLEPEDFAVYYCQHSRDLPLTFGGGTKVEIK
light: not shown

BTN3A expressed at the cell surface (human), O00481, sequence (O00481 30-513): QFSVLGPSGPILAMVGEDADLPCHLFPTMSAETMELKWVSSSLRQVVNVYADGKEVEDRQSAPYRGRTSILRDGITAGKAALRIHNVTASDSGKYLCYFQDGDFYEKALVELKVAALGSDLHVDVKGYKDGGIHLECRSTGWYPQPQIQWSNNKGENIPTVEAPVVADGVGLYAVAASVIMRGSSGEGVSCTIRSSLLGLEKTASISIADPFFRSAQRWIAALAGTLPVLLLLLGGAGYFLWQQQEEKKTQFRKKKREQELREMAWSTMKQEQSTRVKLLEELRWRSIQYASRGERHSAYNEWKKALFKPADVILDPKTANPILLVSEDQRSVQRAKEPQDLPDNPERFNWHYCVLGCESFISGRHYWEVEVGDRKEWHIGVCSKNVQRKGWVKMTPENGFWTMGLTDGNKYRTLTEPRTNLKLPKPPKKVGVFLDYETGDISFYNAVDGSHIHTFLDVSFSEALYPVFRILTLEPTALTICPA

The assay addresses BTN3A expressed at the cell surface (human), O00481. Kind of assay: cell-based or functional assay.
On to B1, for which the Jurkat-Vy9Vo2 TCR MOP activation at 0.5 nM (fold-change to medium) turned out to be 14.1 and the Jurkat-Vy9Vo2 TCR MOP activation at 5 nM (fold-change to medium) is 11.2.
For B2 the same measures were 10.4 and 8.8.
Molecule B3 yielded a Jurkat-Vy9Vo2 TCR MOP activation at 0.5 nM (fold-change to medium) of 10.1 and a Jurkat-Vy9Vo2 TCR MOP activation at 5 nM (fold-change to medium) of 9.3.
Taken in the same sequence, the figures for B4 were 8.2 and 7.9.
The molecule B5 returned a Jurkat-Vy9Vo2 TCR MOP activation at 0.5 nM (fold-change to medium) of 12.2 and a Jurkat-Vy9Vo2 TCR MOP activation at 5 nM (fold-change to medium) of 9.8.
Molecule B6 showed a Jurkat-Vy9Vo2 TCR MOP activation at 0.5 nM (fold-change to medium) of 13.6 and a Jurkat-Vy9Vo2 TCR MOP activation at 5 nM (fold-change to medium) of 10.7.
Taken in the same sequence, the figures for B7 were 6.5 and 4.5.
